From patent publication US20230181756A1 (Novartis, published 2023)

Tests used:
human CCR7 [1] = target: T1, human CCR7 (human, UniProt P32248 25-378); assay: cell-based or functional assay
T1 sequence: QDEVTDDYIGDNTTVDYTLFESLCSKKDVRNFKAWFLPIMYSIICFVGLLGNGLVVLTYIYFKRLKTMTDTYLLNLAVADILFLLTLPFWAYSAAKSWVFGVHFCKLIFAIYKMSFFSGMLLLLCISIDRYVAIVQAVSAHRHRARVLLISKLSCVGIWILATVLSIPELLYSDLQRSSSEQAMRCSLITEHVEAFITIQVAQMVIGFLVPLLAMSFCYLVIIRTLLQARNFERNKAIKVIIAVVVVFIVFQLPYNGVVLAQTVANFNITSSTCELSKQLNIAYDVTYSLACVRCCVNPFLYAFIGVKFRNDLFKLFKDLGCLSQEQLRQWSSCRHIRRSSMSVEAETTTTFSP

human CCR7 [2] = target: T1, human CCR7; assay: cell-based or functional assay; remark: listed apart in the source
human CCR7 [3] = target: T1, human CCR7; assay: FACS binding on CCR7 expressing cells, against the unconjugated antibody
human CCR7 [4] = target: T1, human CCR7; assay: cell-based or functional assay; remark: listed apart in the source
human CCR7 [5] = target: T1, human CCR7; assay: cell-based or functional assay; remark: listed apart in the source
human CCR7 [6] = target: T1, human CCR7; assay: FACS titration, human CD4+ T cells (receptor density <2,000)

B1: Parental 674J13 (antibody, IgG1, V domains shown)
VH: DVQLQESGPDLVKPSQSLSLTCTVTGYSITSGYSWHWIRQFPGNKLEWMAHIHSSGSTNYNPSLKSRISIIRDTSKNLFFLQLNSVTTEDTATYYCARGGVQAFAYWGQGTLVTVSA
VL: QIVLTQSPAIMSASPGEKVTMTCSASSSVIYMHWYQQKSGTSPKRWIYDTSKLASGVPARFSGSGSGTSYSLTISSMEAEDAATYYCQQWSSNPLTFGAGTTLELK
Human CCR7 [1]
  pgADC cytotoxic assay, Anti-mFc.MMAF, AMAX (%): 102%
  pgADC cytotoxic assay, Anti-mFc.MMAF, IC50: 0.137 nM
  pgADC cytotoxic assay, Fab-ZAP, AMAX (%): 31%
  pgADC cytotoxic assay, Fab-ZAP, IC50: 6.12 nM

B2: 674J13.CysMab.DAPA.AURIX2 (antibody, human IgG1, kappa, V domains shown)
VH: DVQLQESGPGLVKPSQTLSLTCTVSGYSITSGYSWHWIRQHPGKGLEWMAHIHSSGSTNYNPSLKSRITISRDTSKNQFSLKLSSVTAADTAVYYCARGGVQAFAYWGQGTLVTVSS
VL: EIVLTQSPATLSASPGERVTMSCSASSSVIYMHWYQQKPGQAPRRWIYDTSKLASGVPARFSGSGSGTDYTLTISSMEPEDAAVYYCQQWSSNPLTFGQGTKLEIKR
modifications: DAR LC 0.03; AURIX2 on engineered cysteines, DAR HC 3.93
notes: also called 674J13.DAPA.AURIX2
Human CCR7 [2]
  ADC activity in cell viability assay; IC50 (nM); CML-T1 cells (CCR7 receptor levels ~29,000): 3.78 nM
  ADC activity in cell viability assay; IC50 (nM); DEL cells (CCR7 receptor levels ~100,000): 0.242 nM
  ADC activity in cell viability assay; IC50 (nM); KE97 cells (CCR7 receptor levels ~100,000): 0.102 nM
  ADC activity in cell viability assay; IC50 (nM); SR786 cells (CCR7 receptor levels ~28,000): 2.74 nM
Human CCR7 [3]
  difference of geometric mean fluorescence intensity from the unconjugated antibody: ≤ 20%
Human CCR7 [4]
  ADC activity in cell viability assay; IC50 (nM); DEL cells: 0.117 nM
  ADC activity in cell viability assay; IC50 (nM); KE97 cells: 0.0658 nM

B3: Parental 121G12 (antibody, V domains shown)
VH: EVQLVESGGGLVKPGGSLKLSCAASGFTFSTYAMSWVRQTPEKRLEWVATISDGGSYSYYPDNVKGRFTISRDNAKNNLYLQMSHLKSEDTAMYYCARRGSRYEEYYVMDYWGQGTSVTVSS
VL: DIVLTQSPATLSVTPGDSVSLSCRASQSISNNLHWYQQKSHESPKLLIKYASQSISGIPSRFSGSGSGTDFTLSINSVETEDFGMYFCQQSNSWLTFGAGTKLGLK
Human CCR7 [1]
  pgADC cytotoxic assay, Anti-mFc.MMAF, AMAX (%): 104%
  pgADC cytotoxic assay, Anti-mFc.MMAF, IC50: 0.055 nM
  pgADC cytotoxic assay, Fab-ZAP, AMAX (%): 43%
  pgADC cytotoxic assay, Fab-ZAP, IC50: 0.064 nM

B4: Parental 506E15 (antibody, V domains shown)
VH: EVMLVESGGGLVKPGGSLKLSCAASGFTFSSYAMSWIRQTPEKRLEWVATISSGGSFTYYPDSVKGRFTISRDNVKNTLYLQMSSLRSEDTAMYYCARRASTVVGTDFDVWGAGTTVTVSS
VL: DIQMTQSPSSLSASLGERVSLTCRASQDIGSSLNWLQQEPDGTIKRLIYATSSLDSGVPKRFSGSRSGSDYSLTISSLESEDFVVYYCLQYASSPPTFGGGTKLEIK
Human CCR7 [5]
  ADCC reporter assay, 506E15 IC50 (nM), ALL-SIL cells (CCR7 receptor # 6,200): 0.008 nM
  ADCC reporter assay, 506E15 IC50 (nM), CMLT-1 cells (CCR7 receptor # 29,000): 0.011 nM
  ADCC reporter assay, 506E15 IC50 (nM), DEL cells (CCR7 receptor # 62,000): 0.074 nM
  ADCC reporter assay, 506E15 IC50 (nM), DND-41 cells (CCR7 receptor # 1,700): 0.002 nM
  ADCC reporter assay, 506E15 IC50 (nM), JVM2 cells (CCR7 receptor # 66,500): 0.046 nM
  ADCC reporter assay, 506E15 IC50 (nM), Jurkat V158 cells (CCR7 receptor # 3,400): 0.004 nM
  ADCC reporter assay, 506E15 IC50 (nM), MOTN-1 cells (CCR7 receptor # 64,600): 0.077 nM
  ADCC reporter assay, 506E15 IC50 (nM), PEER cells (CCR7 receptor # 8,700): 0.038 nM
  ADCC reporter assay, 506E15 IC50 (nM), SR786 cells (CCR7 receptor # 27,800): 0.011 nM
Human CCR7 [1]
  pgADC cytotoxic assay, Anti-mFc.MMAF, AMAX (%): 95%
  pgADC cytotoxic assay, Anti-mFc.MMAF, IC50: 0.07 nM
  pgADC cytotoxic assay, Fab-ZAP, AMAX (%): 60%
  pgADC cytotoxic assay, Fab-ZAP, IC50: 0.135 nM

B5: Parental 684E12 (antibody, IgG1, V domains shown)
VH: EVHLVESGGGLVKPGGSLKLSCAASGFTFSNFAMSWVRQTPEKRLEWVATISTGGTYTYYPDSVKGRFTISRDNAKKTLYLQMSSLRSEDTAMYYCTRRGYDGVDKWGQGTTLTVSS
VL: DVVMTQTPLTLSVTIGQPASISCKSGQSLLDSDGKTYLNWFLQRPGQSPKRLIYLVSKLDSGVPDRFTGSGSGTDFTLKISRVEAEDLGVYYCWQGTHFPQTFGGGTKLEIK
Human CCR7 [1]
  pgADC cytotoxic assay, Anti-mFc.MMAF, AMAX (%): 80%
  pgADC cytotoxic assay, Anti-mFc.MMAF, IC50: 0.214 nM
  pgADC cytotoxic assay, Fab-ZAP, AMAX (%): 33%
  pgADC cytotoxic assay, Fab-ZAP, IC50: 2.6 nM

B6: 684E12.SMCC.DM1 (antibody, V domains shown)
VH: EVHLVESGGGLVKPGGSLKLSCAASGFTFSNFAMSWVRQTPEKRLEWVATISTGGTYTYYPDSVKGRFTISRDNAKKTLYLQMSSLRSEDTAMYYCTRRGYDGVDKWGQGTTLTVSS
VL: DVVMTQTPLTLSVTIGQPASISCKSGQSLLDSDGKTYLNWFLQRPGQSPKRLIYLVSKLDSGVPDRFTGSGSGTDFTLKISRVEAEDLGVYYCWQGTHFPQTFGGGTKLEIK
modifications: SMCC-DM1 on lysines of the antibody, DAR 2.6
notes: also called parental 684E12.SMCC.DM1
Human CCR7 [3]
  difference of geometric mean fluorescence intensity from the unconjugated antibody: ≤ 20%

B7: 506E15.CysMab.DAPA.AURIX2 (antibody, human IgG1, kappa, V domains shown)
VH: EVQLVESGGGLVKPGGSLRLSCAASGFTFSSYAMSWIRQAPGKGLEWVATISSGGSFTYYPDSVKGRFTISRDNAKNSLYLQMNSLRAEDTAVYYCARRASTVVGTDFDVWGQGTTVTVSS
VL: DIQMTQSPSSLSASVGDRVTLTCRASQDIGSSLNWLQQKPGKAIKRLIYATSSLDSGVPSRFSGSRSGTDYTLTISSLQPEDFVVYYCLQYASSPPTFGGGTKLEIKR
modifications: AURIX2 on engineered cysteines, DAR 3.80
notes: also called 506E15.DAPA.AURIX2
Human CCR7 [3]
  difference of geometric mean fluorescence intensity from the unconjugated antibody: ≤ 20%
Human CCR7 [4]
  ADC activity in cell viability assay; IC50 (nM); DEL cells: 0.0084 nM
  ADC activity in cell viability assay; IC50 (nM); KE97 cells: 0.0131 nM

B8: Humanized 684E12 hIgG1 DAPA CysMab (antibody, V domains shown)
VH: EVQLVESGGGLVKPGGSLRLSCAASGFTFSNFAMSWVRQAPGKGLEWVSTISTGGTYTYYPDSVKGRFTISRDNAKNSLYLQMNSLRAEDTAVYYCARRGYSGVDKWGQGTTVTVSS
VL: DVVMTQSPLSLPVTLGQPASISCKSGQSLLDSTGKTYLNWFLQRPGQSPRRLIYLVSKLDSGVPDRFSGSGSGTDFTLKISRVEAEDVGVYYCWQGTHFPQTFGGGTKLEIKR
notes: also called Humanized CysMab.DAPA antibody 684E12
Human CCR7 [6]
  EC50: ~7 nM
